One experiment has as its target T1, human Nav1.8 (Homo sapiens, UniProt Q9Y5Y9, DEL1030-1030/M1713V).
T1 construct: cell line made in house
The experiment is described as follows: Whole-cell voltage-clamp of INa1.8 in HEK1.8 stable cells. It counts as cell-based. Further details: sensitivity of INa1.8 to channel blocker: dose or concentration left out as unconfirmed.

The target in a further experiment is T2, hNav1.7 (Homo sapiens, UniProt Q15858).
T2 construct: the Nav1.7 antibody detected full-length Nav1.7 only in HEK1.7 cells
The experiment can be described thus: Whole-cell voltage-clamp of INa1.7 in HEK1.7 cells after plasmid transfection. It counts as cell-based. As to conditions: for INa1.7 in presence of NaviPA1 mutants: 3-4 days after transfection. How it is done:
The stable expression of each construct was verified by transfection into HEK293 cells stably expressing human wild-type Nav1.7 (HEK1.7 cells), followed by immunoblots (IB). Representative tests for GFPlinker (GFP), 1.7iPAs (1, 2, 3, 4, 6) were shown (FIG. 1H, I). Initial screening experiments by whole-cell voltage-clamp of INa1.7 in HEK1.7 cells, transfected with plasmids encoding nine 1.7iPAs (1.7iPA1-9), were performed to characterize the INa1.7. The presence of 9 different 1.7iPAs in HEK1.7 cells on peak INa1.7 density (3 days after transfection) were summarized in FIG. 1F, in which the data points recorded by at least 2 replicates were combined. […] These experiments thus identified 1.7iPA1 and 1.7iPA4 (both derived from ICL1), as well as 1.7iPA6 (from ICL2), as effective iPAs (>50% INa1.7 inhibition). We next focused on the validation of INa1.7 inhibition and channel kinetics by 1.7iPA1, 4, and 6 on HEK1.7 cells in new experiments. […] The 1.7iPA1 peptide is polyampholytic, enriched with 38.6% positively charged arginine or lysine (17/44), 23% of serine (10/44), 14% acidic residues (6/44); and is highly conserved between rodents and humans (FIG. 2F).
EP recordings were performed, as we described previously with minor modifications at room temperature (22~25° C.) (10, 12), in a blind manner where the electrophysiologist was not aware of the treatment. Patch pipettes 0.9-2.5M2 resistance were formed from borosilicate glass (King Precision Glass Co., Claremont, CA) and fire polished. Recordings were made with an […] amplifier (Molecular Devices, Downingtown, PA). Signals were filtered at 5 kHz and sampled at 20 and 50 kHz (adopted from literature) (13-22) with a Digidata 1440A digitizer and pClamp10 software (Molecular Devices, San Jose, CA). Series resistance (3-5M (2) was monitored before and after the recordings, and data were discarded if the resistance changed by 20%. After achieving the whole-cell recording, capacitance (Cm) and series resistance (Rs) were compensated accordingly.
Sodium channel current (INa) recording in cultured cell lines. Whole-cell voltage-clamp to recording INa was performed in HEK1.7, HEK1.1, HEK1.3, HEK1.6, HEK1.5, HEK1.8, CHO1.8, NG108-15 cells, and F11cells in current-density (I-V) and fast-inactivation voltage protocols. External solution consists of the following (in mM): 110 NaCl, 20 tetraethylammonium-Cl, […]), 0.1 CaCl2, 5 MgCl2, 10 HEPES and 5.56 mM glucose (pH 7.4, 310-315 mosM/L). The internal pipette solution consisted of (in mM): 10 NaCl, 130 CsCl, 5 MgCl2, 5 EGTA, 2.5 Na2+ATP and 10 HEPES (pH 7.2). After formation of a tight seal (maximal leak amplitude <150 pA), membrane resistance and capacitance were determined. The voltage dependence of activation was assessed from holding potential using 50 ms pulses (test-pulse) to a range of test potentials from −100 mV to +50 mV in 5 mV or 10 mV incremental steps with an interval of 5 s. Current density was calculated by normalizing maximal peak currents with cell capacitance. The voltage dependence of steady-state fast inactivation was measured using a two-step protocol. A 500 ms pre-pulse with various potentials ranging from Vhold to +10 mV in 5 or 10 mV incremental steps was used to inactivate the channels. This pre-pulse was immediately followed by a 40 ms test-pulse at 0 mV to determine the remaining fraction of available channels. Inward current measured during the test-pulse to 0 mV was normalized to the cell's maximum test-pulse inward current. To determine the conductance-voltage (I-V) relationships of voltage-dependent activation, the peak current densities during each voltage command step were fitted to a smooth curve with a Boltzmann equation: I=Gmax (V-Erev)/[(1+exp [(V−V50)/k))], which provided the maximum conductance (Gmax). Normalized activation curves were fitted with a Boltzmann equation G/Gmax=1/(1+exp (V50-Vm)/k), where G was calculated as follows: G=I/(Vm−Erev). […]

The subject of experiment [1] is mechanical hypersensitivity. The settings on record: after i.p. injection; cited from earlier work.
In another experiment the test system is DRG neurons. The experiment is described as follows: Whole-cell current-clamp of dissociated DRG neurons from TNI rats (excitability). Format: cell-based, rat. The settings on record: transduced small/medium-sized DRG neurons, male TNI rats, compared to sham. The text has this: Increased excitability of nociceptive PSNs is a fundamental process underlying neuropathic pain (46). We therefore examined whether AAV6-NaviPA1 treatment reverses the enhanced neuronal excitability of nociceptive PSNs following TNI (12, 47), using the whole-cell current-clamp AP recording of DRG dissociated neurons from rats after the treatment protocol shown in FIG. 7B. […] We therefore recorded from randomly chosen small/medium-sized neurons (<35 μm in diameter) (51) in the cultures from dissociated L4 and L5 DRG. Transduced neurons were identified by GFP fluorescence, and excitability was evaluated by measuring rheobase and repetitive action potential (AP) firing during 250 ms current pulses stepping from 100 pA and 280 pA current injection. […]
Whole-cell current-clamp recording on dissociated DRG neurons (male rats). […] The membrane input resistance was calculated by dividing the ending amplitude of steady-state hyperpolarizing voltage deflection by the injected current (27). […] The baseline potentials were recorded for 20 ms before the stimulus pulses were injected into the neurons. […] AP frequency was determined by quantifying the number of APs elicited in response to depolarizing current injections (250 ms).

Another experiment has as its target T3, Nav1.7 (Homo sapiens, UniProt Q15858).
T3 construct: the Nav1.7 antibody detected full-length Nav1.7 only in HEK1.7 cells
The experiment can be described thus: Immunoblot of membrane Nav1.7 in fractionated HEK1.7 cells (intracellular trafficking). As to conditions: fractionated HEK1.7 cells after transfection. Format: cell-based. The procedure:
Since Nav1.7 is an integral membrane protein, we therefore tested whether NaviPA1 expression in the HEK1.7 cells would interrupt Nav1.7 intracellular trafficking. […] Studies have shown that IDRs in the membrane proteins engage in interactions with the membrane (33). To test whether NaviPA1 interference of Nav1.7 might be via […] of Nav1.7, GFP affinity pull-down by ChromoTek GFP-Trap (ChromoTek, Rosemont, IL) was performed after transfection of GFP-NaviPA1 in HEK1.7 cells using GFPlinker (GFP) and GFP-1.7iPA2 (FIG. 1) as the controls. Cell lysates were prepared by a lysis buffer containing 0.5% Nonidet p40, a ‘non-denaturing’ mild lysis detergent, for preventing interaction breaking and maximizing the retention of NaviPA1-protein interactions (34). […] It has been reported that polybasic IDRs in transmembrane proteins preferably bind to negatively charged lipids (36, 37). We reasoned that NaviPA1 might be able to bind phosphoinositides, and this hypothesis was tested by using phosphatidylinositol phosphate (PIP) strips (Echelon PIP Strip, Salt Lake City, UT). […]
NaviPA1 is a polybasic arginine/lysine and serine-enriched peptide. […] However, the full-length Nav1.7 membrane integration, which is determined by its TM domains but not intracellular sequences, was unaffected in the presence of NaviPA1 (FIG. 6F). […]

Where [2] appears, read: HEK1.7 cells, initial screening.

Like-named read-outs stand apart in the source and are kept apart here. No end group written: not given here.

T1 sequence (Q9Y5Y9 with tags, fused parts or gaps DEL1030-1030/M1713V): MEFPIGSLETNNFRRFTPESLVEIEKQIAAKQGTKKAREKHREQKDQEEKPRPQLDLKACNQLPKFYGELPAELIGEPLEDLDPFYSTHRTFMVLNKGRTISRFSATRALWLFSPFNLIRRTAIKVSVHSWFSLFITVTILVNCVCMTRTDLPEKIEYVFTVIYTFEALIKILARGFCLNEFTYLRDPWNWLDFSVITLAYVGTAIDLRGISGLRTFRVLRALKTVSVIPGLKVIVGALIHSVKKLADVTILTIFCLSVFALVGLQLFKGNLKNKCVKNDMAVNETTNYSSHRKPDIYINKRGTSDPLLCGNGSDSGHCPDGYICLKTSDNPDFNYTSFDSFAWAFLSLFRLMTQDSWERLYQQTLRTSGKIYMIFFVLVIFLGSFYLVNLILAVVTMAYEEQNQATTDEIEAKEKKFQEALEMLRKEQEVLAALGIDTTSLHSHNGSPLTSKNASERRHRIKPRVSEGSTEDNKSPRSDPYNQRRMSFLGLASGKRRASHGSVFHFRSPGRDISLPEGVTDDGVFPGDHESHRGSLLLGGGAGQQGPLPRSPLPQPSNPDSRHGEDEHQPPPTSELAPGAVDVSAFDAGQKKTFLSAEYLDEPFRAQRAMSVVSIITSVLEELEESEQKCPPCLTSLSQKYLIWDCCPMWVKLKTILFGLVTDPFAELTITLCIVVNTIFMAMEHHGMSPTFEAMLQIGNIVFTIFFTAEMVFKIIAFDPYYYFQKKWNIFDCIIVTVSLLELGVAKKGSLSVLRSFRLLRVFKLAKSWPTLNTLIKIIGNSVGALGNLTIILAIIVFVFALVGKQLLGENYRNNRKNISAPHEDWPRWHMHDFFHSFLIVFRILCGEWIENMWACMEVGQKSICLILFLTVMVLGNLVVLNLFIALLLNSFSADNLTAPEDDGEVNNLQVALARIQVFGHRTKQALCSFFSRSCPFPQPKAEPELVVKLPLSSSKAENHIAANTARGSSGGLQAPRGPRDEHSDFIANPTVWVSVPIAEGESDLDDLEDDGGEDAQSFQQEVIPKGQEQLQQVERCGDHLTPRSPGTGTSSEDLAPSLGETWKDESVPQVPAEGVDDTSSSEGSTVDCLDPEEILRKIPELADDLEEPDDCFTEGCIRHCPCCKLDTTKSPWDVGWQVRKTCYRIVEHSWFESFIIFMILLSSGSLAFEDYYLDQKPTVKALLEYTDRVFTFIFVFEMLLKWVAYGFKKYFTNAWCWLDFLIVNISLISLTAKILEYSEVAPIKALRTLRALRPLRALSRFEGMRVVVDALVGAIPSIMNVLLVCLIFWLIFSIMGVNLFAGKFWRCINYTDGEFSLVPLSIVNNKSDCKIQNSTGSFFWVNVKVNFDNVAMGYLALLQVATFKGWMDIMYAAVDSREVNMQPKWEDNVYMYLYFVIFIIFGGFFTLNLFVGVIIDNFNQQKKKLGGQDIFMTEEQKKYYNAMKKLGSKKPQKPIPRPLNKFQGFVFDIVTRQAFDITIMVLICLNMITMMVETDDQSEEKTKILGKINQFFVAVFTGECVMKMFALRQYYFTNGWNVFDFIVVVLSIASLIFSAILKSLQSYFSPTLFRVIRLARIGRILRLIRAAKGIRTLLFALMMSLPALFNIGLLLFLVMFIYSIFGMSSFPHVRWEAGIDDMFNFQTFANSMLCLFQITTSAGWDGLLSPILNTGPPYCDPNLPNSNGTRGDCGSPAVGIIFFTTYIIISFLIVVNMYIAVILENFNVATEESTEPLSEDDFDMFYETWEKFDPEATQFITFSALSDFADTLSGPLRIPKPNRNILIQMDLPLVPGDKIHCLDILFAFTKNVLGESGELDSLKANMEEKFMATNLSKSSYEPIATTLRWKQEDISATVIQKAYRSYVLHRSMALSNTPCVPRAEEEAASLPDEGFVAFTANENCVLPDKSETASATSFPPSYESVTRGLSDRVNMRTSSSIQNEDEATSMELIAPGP
T2 sequence (Q15858 whole entry): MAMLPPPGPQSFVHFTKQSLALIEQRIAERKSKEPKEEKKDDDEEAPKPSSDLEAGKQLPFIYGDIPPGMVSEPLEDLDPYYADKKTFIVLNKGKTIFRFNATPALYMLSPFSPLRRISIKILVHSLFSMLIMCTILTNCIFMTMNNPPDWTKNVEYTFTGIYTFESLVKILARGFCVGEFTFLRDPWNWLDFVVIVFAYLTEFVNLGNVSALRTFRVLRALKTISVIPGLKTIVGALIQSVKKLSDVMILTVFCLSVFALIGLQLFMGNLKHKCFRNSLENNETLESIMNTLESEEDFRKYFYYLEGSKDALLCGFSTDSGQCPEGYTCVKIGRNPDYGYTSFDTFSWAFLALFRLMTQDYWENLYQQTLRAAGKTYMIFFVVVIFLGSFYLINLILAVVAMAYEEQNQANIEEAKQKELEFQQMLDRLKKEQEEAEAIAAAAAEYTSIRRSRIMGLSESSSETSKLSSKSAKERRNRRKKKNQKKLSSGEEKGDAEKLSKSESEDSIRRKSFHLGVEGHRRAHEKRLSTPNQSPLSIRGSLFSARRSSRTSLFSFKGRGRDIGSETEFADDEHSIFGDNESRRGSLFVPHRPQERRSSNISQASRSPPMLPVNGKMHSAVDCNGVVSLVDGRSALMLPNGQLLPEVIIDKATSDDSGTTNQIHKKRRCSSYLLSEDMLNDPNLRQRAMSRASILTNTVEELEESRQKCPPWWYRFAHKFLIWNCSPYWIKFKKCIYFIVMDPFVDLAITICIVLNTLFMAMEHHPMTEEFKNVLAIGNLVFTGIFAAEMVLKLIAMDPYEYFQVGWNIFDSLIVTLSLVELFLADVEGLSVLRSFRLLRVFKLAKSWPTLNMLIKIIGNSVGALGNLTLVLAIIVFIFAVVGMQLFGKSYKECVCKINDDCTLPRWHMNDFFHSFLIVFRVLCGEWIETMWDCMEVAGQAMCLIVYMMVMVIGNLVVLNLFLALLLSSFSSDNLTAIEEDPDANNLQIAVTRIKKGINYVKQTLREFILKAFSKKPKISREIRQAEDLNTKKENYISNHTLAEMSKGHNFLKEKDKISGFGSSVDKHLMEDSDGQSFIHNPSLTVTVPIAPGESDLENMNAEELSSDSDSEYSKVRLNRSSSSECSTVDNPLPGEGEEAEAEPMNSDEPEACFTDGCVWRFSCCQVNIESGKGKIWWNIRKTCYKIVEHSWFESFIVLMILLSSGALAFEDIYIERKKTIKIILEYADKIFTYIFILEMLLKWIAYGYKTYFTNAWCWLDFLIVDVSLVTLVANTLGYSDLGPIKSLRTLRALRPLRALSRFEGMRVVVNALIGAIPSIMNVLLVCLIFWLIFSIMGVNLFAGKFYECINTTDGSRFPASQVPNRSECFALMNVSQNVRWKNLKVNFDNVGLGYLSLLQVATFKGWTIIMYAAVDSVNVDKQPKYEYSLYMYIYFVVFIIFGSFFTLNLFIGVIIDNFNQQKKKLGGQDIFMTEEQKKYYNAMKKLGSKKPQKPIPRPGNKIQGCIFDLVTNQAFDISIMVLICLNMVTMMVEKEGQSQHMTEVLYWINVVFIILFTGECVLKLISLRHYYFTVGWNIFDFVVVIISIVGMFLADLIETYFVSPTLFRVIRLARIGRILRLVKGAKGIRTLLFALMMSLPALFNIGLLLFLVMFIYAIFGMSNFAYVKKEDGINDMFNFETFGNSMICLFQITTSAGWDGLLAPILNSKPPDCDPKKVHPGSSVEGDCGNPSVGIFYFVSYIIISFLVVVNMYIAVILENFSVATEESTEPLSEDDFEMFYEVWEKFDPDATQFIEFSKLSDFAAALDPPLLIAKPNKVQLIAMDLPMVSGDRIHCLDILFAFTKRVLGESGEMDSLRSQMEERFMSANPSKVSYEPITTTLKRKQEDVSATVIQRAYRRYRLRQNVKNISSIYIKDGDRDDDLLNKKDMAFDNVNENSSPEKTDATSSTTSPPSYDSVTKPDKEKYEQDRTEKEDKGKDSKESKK
T3 sequence (Q15858 whole entry): as above

On human Nav1.8 (100 nM, HEK1.8 cells), `COc1cc(NC(=O)c2ccc(-c3ccc(Cl)cc3)o2)cc(OC)c1` [A803467, reference compound] registered an INa1.8 inhibition of 85%. The “sensitivity of INa1.8 to channel blocker” value at human Nav1.8 (HEK1.8 cells) is recorded as “sensitive”.
Take `NC1=N[C@H](O)[C@H]2[C@H]3O[C@]4(O)O[C@@H]([C@@H](O)[C@@]2(N1)[C@@H]4O)[C@]3(O)CO` [TTX, tetrodotoxin, reference compound]: the “Peak INa1.7” value on hNav1.7 is 2 ± 1 (10) pA/pF. Moreover, on human Nav1.8, the “sensitivity of INa1.8 to channel blocker” value is “resistant”.
As for `NCC1(CC(=O)O)CCCCC1` [gabapentin, Gabapentin], the “time of maximal reduction of mechanical hypersensitivity” value in experiment [1] was 30 to 60 min.
With “Nav1.7iPA3: inert peptide from N-terminus of Nav1.7 (SEQ ID NO: 3), used as control NP (SEEKAKEHKDEKKDDEEEGPKPSSDLEAGKQ)”, in the experiment with hNav1.7 (setting [2]), the “Activation V50” value is listed as 25.4 ± 1.2 (22) mV and the “Inactivation V50” value is on record as 61.6 ± 2 (18) mV. In addition, the “Peak INa1.7” value with hNav1.7 (HEK1.7 cells, initial screening after plasmid transfection, value ± spread, (n) in cell) was 118 ± 1 (22) pA/pF. The “effect on peak INa1.7 density” value in the experiment with hNav1.7 (compared to sham transfected HEK1.7 cells) is recorded as “no significant effects”. In addition, the “rheobase and frequency of evoked APs in neurons from TNI rats” value in the experiment on DRG neurons is “no significant effects”.
With “NaviPA1mt1: GFP-fused NaviPA1 mutant, alanine substitution for ten serine residues (AAKAAKERRNRRKKKKQKMAAGEEKGDDEKLAKAGAEEAIRKKA; also: GFP fusion)”, in the experiment with hNav1.7 (HEK1.7 cells), the “INa1.7 in presence of NaviPA1 mutants” value is “comparable to naïve and GFPNP transfected HEK1.7 cells”. In addition, the “effect on INa1.8” value in the experiment with human Nav1.8 (HEK1.8 cells) is “did not change”. In addition, the “membrane Nav1.7 protein / Nav1.7 membrane integration” value with Nav1.7 is recorded as “not to impede”.
In the case of “NaviPA1mt2: GFP-fused NaviPA1 mutant, alanine substitution for nine arginine or lysine within predicted polybasic NLS (SSKSAKEAANAAAAAAQAMSSGEEKGDDEKLSKSGSEESIRKKS; also: GFP fusion)”, the “INa1.7 in presence of NaviPA1 mutants” value with hNav1.7 (HEK1.7 cells) was “comparable to naïve and GFPNP transfected HEK1.7 cells”. The “effect on INa1.8” value with human Nav1.8 (HEK1.8 cells) is “did not change”. Moreover, the “membrane Nav1.7 protein / Nav1.7 membrane integration” value with Nav1.7 is listed as “not to impede”.
